# Measured values taken from PMC5599985.
# Columns and labels:
# [1] = biological target: biotinylated synthetic peptide containing the C-terminal 16 amino-acid residues of harmonin-a1 including the PBM; assay: SPR
# [2] = biological target: NTD-PDZ1 supramodule of harmonin-a1; assay: NMR titration
# [3] = biological target: PDZ2 domain of harmonin-a1 (amino acids 197-308); assay: NMR titration
Kd [1],Kd [2],Kd [3],Substance
61 µM,,,NTD-PDZ1 supramodule of harmonin-a1 (domain or fragment)
,51 µM,375 µM,synthetic peptide of the C-terminal 16 residues of harmonin-a1 (amino acids 533-548) including the PBM
